Values of other authors in publication PMC4113456, “Atypical Signaling and Functional Desensitization Response of MAS Receptor to Peptide Ligands” (PLoS ONE, 2014).

Target: T1, MAS (Homo sapiens, UniProt P04201)
T1 construct: expressed in transfected cells
T1 sequence (P04201 1-325): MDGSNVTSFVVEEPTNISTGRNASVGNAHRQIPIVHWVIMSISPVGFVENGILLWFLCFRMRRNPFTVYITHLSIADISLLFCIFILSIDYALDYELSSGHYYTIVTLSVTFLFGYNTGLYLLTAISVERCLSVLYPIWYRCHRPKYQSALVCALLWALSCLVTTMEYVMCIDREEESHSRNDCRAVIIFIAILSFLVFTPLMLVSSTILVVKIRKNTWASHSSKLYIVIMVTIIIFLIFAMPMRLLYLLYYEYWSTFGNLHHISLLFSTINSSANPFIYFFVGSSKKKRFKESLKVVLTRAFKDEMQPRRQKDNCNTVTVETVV
Set-up: method as in ref [4] (a number printed in a supplementary file, which may have a reference list of its own: not looked up in the article's list)
Details: ref [4]; cited from earlier work

Substance: Angioprotectin: physiological ligand, sequence PEVYIHPF
- Effect in aortic rings: Vasodilator effect in aortic rings
